Assay results from the supplement of paper PMC10567573.

B1: ZNF263 (parent)
chain: VPGTQVGQGGKLWDPSVQSCKEGL

Variants of: B1
Assay: protein stability index of a GFP-peptide fusion (GPS, HEK-293T) (PSI 1-6); higher = more stable
Details: c terminus: a fixed tail appended
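Note: lentivirally expressed fusions sorted by FACS into six bins by GFP to DsRed ratio, PSI derived from sequencing read proportions per bin multiplied by bin number.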

Row | Variant | protein stability index
1 | VPGTQVGQMGKLWDPSVQSCKEGL | 3.42
2 | VPGTQVGQFGKLWDPSVQSCKEGL | 3.87
3 | VPGTQVGQRGKLWDPSVQSCKEGL | 3.67
4 | VPGTQVGQQGKLWDPSVQSCKEGL | 4.22
5 | VPGTQVGQYGKLWDPSVQSCKEGL | 3.59
6 | VPGTQVGQIGKLWDPSVQSCKEGL | 3.8
7 | VPGTQVGQTGKLWDPSVQSCKEGL | 4.25
8 | VPGTQVGQCGKLWDPSVQSCKEGL | 3.73
9 | VPGTQVGQDGKLWDPSVQSCKEGL | 4.55
10 | VPGTQVGQHGKLWDPSVQSCKEGL | 4.34
11 | VPGTQVGQVGKLWDPSVQSCKEGL | 3.67
12 | VPGTQVGQLGKLWDPSVQSCKEGL | 4.19
13 | VPGTQVGQAGKLWDPSVQSCKEGL | 4.03
14 | VPGTQVGQEGKLWDPSVQSCKEGL | 4.61
15 | VPGTQVGQNGKLWDPSVQSCKEGL | 3.47
16 | VPGTQVGQKGKLWDPSVQSCKEGL | 4.25
17 | VPGTQVGQPGKLWDPSVQSCKEGL | 3.25
18 | VPGTQVGQWGKLWDPSVQSCKEGL | 3.33
19 | VPGTQVGQSGKLWDPSVQSCKEGL | 4.23
20 | VPGTQVGQGGTLWDPSVQSCKEGL | 4.31
21 | VPGTQVGQGGYLWDPSVQSCKEGL | 4.12
22 | VPGTQVGQGGVLWDPSVQSCKEGL | 3.61
23 | VPGTQVGQGGCLWDPSVQSCKEGL | 4.57
24 | VPGTQVGQGGGLWDPSVQSCKEGL | 4.44

Row | Variant | protein stability index
25 | VPGTQVGQGGELWDPSVQSCKEGL | 4.22
26 | VPGTQVGQGGILWDPSVQSCKEGL | 4.26
27 | VPGTQVGQGGMLWDPSVQSCKEGL | 4.56
28 | VPGTQVGQGGFLWDPSVQSCKEGL | 3.9
29 | VPGTQVGQGGRLWDPSVQSCKEGL | 4.46
30 | VPGTQVGQGGQLWDPSVQSCKEGL | 4.54
31 | VPGTQVGQGGLLWDPSVQSCKEGL | 4.13
32 | VPGTQVGQGGDLWDPSVQSCKEGL | 4.63
33 | VPGTQVGQGGHLWDPSVQSCKEGL | 4.03
34 | VPGTQVGQGGWLWDPSVQSCKEGL | 3.72
35 | VPGTQVGQGGALWDPSVQSCKEGL | 4
36 | VPGTQVGQGGSLWDPSVQSCKEGL | 4.35
37 | VPGTQVGQGGNLWDPSVQSCKEGL | 4.54
38 | VPGTQVGQGGPLWDPSVQSCKEGL | 3.65
39 | VPGTQVGQGGKLWDESVQSCKEGL | 4.94
40 | VPGTQVGQGGKLWDTSVQSCKEGL | 4.25
41 | VPGTQVGQGGKLWDSSVQSCKEGL | 4.03
42 | VPGTQVGQGGKLWDNSVQSCKEGL | 4.13
43 | VPGTQVGQGGKLWDCSVQSCKEGL | 3.75
44 | VPGTQVGQGGKLWDASVQSCKEGL | 4.22
45 | VPGTQVGQGGKLWDYSVQSCKEGL | 3.16
46 | VPGTQVGQGGKLWDVSVQSCKEGL | 3.63
47 | VPGTQVGQGGKLWDQSVQSCKEGL | 4.25
48 | VPGTQVGQGGKLWDDSVQSCKEGL | 4.29

Row | Variant | protein stability index
49 | VPGTQVGQGGKLWDLSVQSCKEGL | 4.8
50 | VPGTQVGQGGKLWDRSVQSCKEGL | 4.16
51 | VPGTQVGQGGKLWDGSVQSCKEGL | 4.35
52 | VPGTQVGQGGKLWDISVQSCKEGL | 3.3
53 | VPGTQVGQGGKLWDFSVQSCKEGL | 2.86
54 | VPGTQVGQGGKLWDKSVQSCKEGL | 4.23
55 | VPGTQVGQGGKLWDMSVQSCKEGL | 3.54
56 | VPGTQVGQGGKLWDHSVQSCKEGL | 4.01
57 | VPGTQVGQGGKLWDWSVQSCKEGL | 3.17
58 | VPGTQVGQGGKLWDPSVASCKEGL | 3.46
59 | VPGTQVGQGGKLWDPSVHSCKEGL | 3.89
60 | VPGTQVGQGGKLWDPSVESCKEGL | 4.7
61 | VPGTQVGQGGKLWDPSVDSCKEGL | 4.54
62 | VPGTQVGQGGKLWDPSVCSCKEGL | 3.63
63 | VPGTQVGQGGKLWDPSVGSCKEGL | 4.92
64 | VPGTQVGQGGKLWDPSVISCKEGL | 4.01
65 | VPGTQVGQGGKLWDPSVFSCKEGL | 3.2
66 | VPGTQVGQGGKLWDPHVQSCKEGL | 4.27
67 | VPGTQVGQGGKLWDPYVQSCKEGL | 3.68
68 | VPGTQVGQGGKLWDPKVQSCKEGL | 4.11
69 | VPGTQVGQGGKLWDPAVQSCKEGL | 4.88
70 | VPGTQVGQGGKLWDPFVQSCKEGL | 3.12
71 | VPGTQVGQGGKLWDPLVQSCKEGL | 3.53
72 | VPGTQVGQGGKLWDPMVQSCKEGL | 3.92

Row | Variant | protein stability index
73 | VPGTQVGQGGKLWDPIVQSCKEGL | 3.15
74 | VPGTQVGQGGKLWDPRVQSCKEGL | 3.12
75 | VPGTQVGQGGKLWDPTVQSCKEGL | 4.58
76 | VPGTQVGQGGKLWDPGVQSCKEGL | 4.21
77 | VPGTQVGQGGKLWDPCVQSCKEGL | 4.11
78 | VPGTQVGQGGKLWDPPVQSCKEGL | 4.45
79 | VPGTQVGQGGKLWDPVVQSCKEGL | 4.02
80 | VPGTQVGQGGKLWDPQVQSCKEGL | 4.38
81 | VPGTQVGQGGKLWDPWVQSCKEGL | 3.17
82 | VPGTQVGQGGKLWDPNVQSCKEGL | 3.89
83 | VPGTQVGQGGKLWDPEVQSCKEGL | 4.73
84 | VPGTQVGQGGKLWDPDVQSCKEGL | 4.93
85 | VPGTQVGQGGKFWDPSVQSCKEGL | 4.26
86 | VPGTQVGQGGKIWDPSVQSCKEGL | 3.65
87 | VPGTQVGQGGKWWDPSVQSCKEGL | 4.01
88 | VPGTQVGQGGKGWDPSVQSCKEGL | 3.97
89 | VPGTQVGQGGKCWDPSVQSCKEGL | 3.94
90 | VPGTQVGQGGKMWDPSVQSCKEGL | 4.07
91 | VPGTQVGQGGKQWDPSVQSCKEGL | 4.72
92 | VPGTQVGQGGKSWDPSVQSCKEGL | 4.3
93 | VPGTQVGQGGKYWDPSVQSCKEGL | 3.79
94 | VPGTQVGQGGKPWDPSVQSCKEGL | 5.07
95 | VPGTQVGQGGKDWDPSVQSCKEGL | 4.89
96 | VPGTQVGQGGKTWDPSVQSCKEGL | 4.34

Row | Variant | protein stability index
97 | VPGTQVGQGGKNWDPSVQSCKEGL | 4.42
98 | VPGTQVGQGGKAWDPSVQSCKEGL | 3.4
99 | VPGTQVGQGGKRWDPSVQSCKEGL | 4.36
100 | VPGTQVGQGGKVWDPSVQSCKEGL | 4.42
101 | VPGTQVGQGGKEWDPSVQSCKEGL | 3.97
102 | VPGTQVGQGGKKWDPSVQSCKEGL | 4.37
103 | VPGTQVGQGGKHWDPSVQSCKEGL | 4.45
104 | VPGTQVGVGGKLWDPSVQSCKEGL | 4.04
105 | VPGTQVGTGGKLWDPSVQSCKEGL | 3.56
106 | VPGTQVGMGGKLWDPSVQSCKEGL | 3.97
107 | VPGTQVGLGGKLWDPSVQSCKEGL | 3.79
108 | VPGTQVGPGGKLWDPSVQSCKEGL | 4.07
109 | VPGTQVGRGGKLWDPSVQSCKEGL | 4.34
110 | VPGTQVGNGGKLWDPSVQSCKEGL | 4.24
111 | VPGTQVGYGGKLWDPSVQSCKEGL | 3.21
112 | VPGTQVGKGGKLWDPSVQSCKEGL | 4.11
113 | VPGTQVGWGGKLWDPSVQSCKEGL | 3.67
114 | VPGTQVGSGGKLWDPSVQSCKEGL | 3.71
115 | VPGTQVGQGGKLWKPSVQSCKEGL | 3.51
116 | VPGTQVGQGGKLWGPSVQSCKEGL | 4.1
117 | VPGTQVGQGGKLWTPSVQSCKEGL | 3.79
118 | VPGTQVGQGGKLWYPSVQSCKEGL | 3.11
119 | VPGTQVGQGGKLWSPSVQSCKEGL | 3.99
120 | VPGTQVGQGGKLWWPSVQSCKEGL | 3.19

Row | Variant | protein stability index
121 | VPGTQVGQGGKLWVPSVQSCKEGL | 3.87
122 | VPGTQVGQGGKLWCPSVQSCKEGL | 3.35
123 | VPGTQVGQGGKLWNPSVQSCKEGL | 3.72
124 | VPGTQVGQGGKLWFPSVQSCKEGL | 3.07
125 | VPGTQVGQGGKLWAPSVQSCKEGL | 4.14
126 | VPGTQVGQGGKLWPPSVQSCKEGL | 3.44
127 | VPGTQVGQGGKLWIPSVQSCKEGL | 3.66
128 | VPGTQVGQGGKLWHPSVQSCKEGL | 4.08
129 | VPGTQVGQGGKLWEPSVQSCKEGL | 3.78
130 | VPGTQVGQGGKLWRPSVQSCKEGL | 3.05
131 | VPGTQVGQGGKLWMPSVQSCKEGL | 3.36
132 | VPGTQVGQGGKLWQPSVQSCKEGL | 4.09
133 | VPGTQVGQGGKLPDPSVQSCKEGL | 4.72
134 | VPGTQVGQGGKLSDPSVQSCKEGL | 4.54
135 | VPGTQVGQGGKLIDPSVQSCKEGL | 4.66
136 | VPGTQVGQGGKLEDPSVQSCKEGL | 5.29
137 | VPGTQVGQGGKLKDPSVQSCKEGL | 4.61
138 | VPGTQVGQGGKLYDPSVQSCKEGL | 4.57
139 | VPGTQVGQGGKLCDPSVQSCKEGL | 4.76
140 | VPGTQVGQGGKLTDPSVQSCKEGL | 4.79
141 | VPGTQVGQGGKLMDPSVQSCKEGL | 4.41
142 | VPGTQVGQGGKLFDPSVQSCKEGL | 4.59
143 | VPGTQVGQGGKLQDPSVQSCKEGL | 4.79
144 | VPGTQVGQGGKLLDPSVQSCKEGL | 4.8

Row | Variant | protein stability index
145 | VPGTQVGQGGKLRDPSVQSCKEGL | 4.71
146 | VPGTQVGQGGKLDDPSVQSCKEGL | 4.4
147 | VPGTQVGQGGKLADPSVQSCKEGL | 4.8
148 | VPGTQVGQGGKLNDPSVQSCKEGL | 5.12
149 | VPGTQVGQGGKLHDPSVQSCKEGL | 4.66
150 | VPGTQVGQGGKLGDPSVQSCKEGL | 5.5
151 | VPGTQVGQGGKLVDPSVQSCKEGL | 4.88
152 | VPGTQVGQGMKLWDPSVQSCKEGL | 4.28
153 | VPGTQVGQGAKLWDPSVQSCKEGL | 4.33
154 | VPGTQVGQGVKLWDPSVQSCKEGL | 3.71
155 | VPGTQVGQGHKLWDPSVQSCKEGL | 4.02
156 | VPGTQVGQGEKLWDPSVQSCKEGL | 4.01
157 | VPGTQVGQGFKLWDPSVQSCKEGL | 2.93
158 | VPGTQVGQGSKLWDPSVQSCKEGL | 4.48
159 | VPGTQVGQGCKLWDPSVQSCKEGL | 3.24
160 | VPGTQVGQGNKLWDPSVQSCKEGL | 4.19
161 | VPGTQVGQGPKLWDPSVQSCKEGL | 4.47
162 | VPGTQVGQGWKLWDPSVQSCKEGL | 2.45
163 | VPGTQVGQGQKLWDPSVQSCKEGL | 4.38
164 | VPGTQVGQGLKLWDPSVQSCKEGL | 3.62
165 | VPGTQVGQGYKLWDPSVQSCKEGL | 3.55
166 | VPGTQVGQGIKLWDPSVQSCKEGL | 3.53
167 | VPGTQVGQGTKLWDPSVQSCKEGL | 4.31
168 | VPGTQVGQGRKLWDPSVQSCKEGL | 4.96

Row | Variant | protein stability index
169 | VPGTQVGQGKKLWDPSVQSCKEGL | 4.5
170 | VPGTQVGQGDKLWDPSVQSCKEGL | 4.54
171 | VPGTQVGQGGKLWDPSPQSCKEGL | 4.24
172 | VPGTQVGQGGKLWDPSFQSCKEGL | 3.38
173 | VPGTQVGQGGKLWDPSMQSCKEGL | 4.06
174 | VPGTQVGQGGKLWDPSKQSCKEGL | 4.33
175 | VPGTQVGQGGKLWDPSDQSCKEGL | 4.92
176 | VPGTQVGQGGKLWDPSQQSCKEGL | 3.8
177 | VPGTQVGQGGKLWDPSSQSCKEGL | 4.92
178 | VPGTQVGQGGKLWDPSHQSCKEGL | 4.1
179 | VPGTQVGQGGKLWDPSIQSCKEGL | 3.89
180 | VPGTQVGQGGKLWDPSRQSCKEGL | 4.23
181 | VPGTQVGQGGKLWDPSCQSCKEGL | 4.15
182 | VPGTQVGQGGKLWDPSAQSCKEGL | 4.38
183 | VPGTQVGQGGKLWDPSGQSCKEGL | 3.99
184 | VPGTQVGQGGKLWDPSTQSCKEGL | 3.74
185 | VPGTQVGQGGKLWDPSNQSCKEGL | 4.07
186 | VPGTQVGQGGKLWDPSLQSCKEGL | 4.08
187 | VPGTQVGQGGKLWDPSEQSCKEGL | 5.16
188 | VPGTQVGQGGKLWDPSYQSCKEGL | 4.1
